These results are taken from the supplement of paper PMC9170038.

The test system of the data set is MS2 coat protein. Nature of the data set: apparent KD of MS2 coat protein; higher = weaker reporter binding. Conditions: Eterna round: R107. A digest of the protocol: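 Values are apparent KD, taken as the median for each design of fits to normalised binding curves from individual clusters. The designed RNA switches were transcribed on-chip from Illumina sequencing clusters and exposed to SNAP-549-labelled MS2 coat protein at twofold increasing amounts from 0.7 or 1.5 nM to 3 µM. Titration used 100 mM Tris-HCl pH 7.5, 80 mM KCl and 4 mM MgCl2, without or with constant ligand.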

Setting [1] is: input ligand: theophylline 20 uM.
Where [2] appears, read: input ligand: theophylline 2 mM.
Setting [3] is: input ligand: tryptophan 2.4 mM.

In the case of “AUAUUAAUCGGAAGGAGCGGUACAUGAGGAUCACCCAUGUGGUAAGCUAGCAGAUCCCGUUACCAGGUAGGUCGCCGAGUUAUGA [XArg-B17]”, the “apparent KD of MS2 coat protein” value runs as follows: (input ligand: arginine 13.2 mM) 268 nM; (input ligand: none) 201 nM; under setting [1], 474 nM; under setting [2], 510 nM; under setting [3], 216 nM.

Take “CAGCACAUGAGGAUCACCCAUGUGAGGGAUACCAGCUCAGGCGUGGGCCCUUGGCAGCUCUGUGGCUGACGAAAGUCAGCCUCUG [#18 SameState-TheophyllineA]”: the “apparent KD of MS2 coat protein” value amounted to 13.4 nM (input ligand: arginine 13.2 mM); 14.6 nM (input ligand: none); 17.7 nM under setting [1]; 15.4 nM under setting [2]; 13.4 nM under setting [3].

On to “UGUAACAUGAGGAUCACCCAUGUGCACGAUACCAGCUUCGAAAGAGGCCCUUGGCAGCGUAUGCGUAAGCUGUAUAAUAUAUAUC [#28 SameState-TheophyllineA]”, for which the “apparent KD of MS2 coat protein” value stood at 11.1 nM (input ligand: arginine 13.2 mM), 14.4 nM under setting [1] and 10.6 nM under setting [3].

With “AAUAAGUAUCUGCUAGGUGAUCCAGCAGAUACCAGCUAGGAAACUAGCCCUUGGCAGCUGCAACAUGAGGAUCACCCAUGUAAUA [(T)'-(M)'-(T1)-(T2)-(M1)-(M2)_Design3]”, the “apparent KD of MS2 coat protein” value (input ligand: arginine 13.2 mM) amounted to 98.7 nM, the “apparent KD of MS2 coat protein” value under setting [1] turned out to be 193 nM and the “apparent KD of MS2 coat protein” value under setting [3] amounted to 407 nM.

In the case of “ACAUGAGGAUCACCCAUGUCAUGAGGUUCACGAGGACCGGUACGGCCGCCACUCGACAUGAGGGUCACCCAUGUGAGGAACACCC [mamullun]”, the “apparent KD of MS2 coat protein” value is, setting by setting: (input ligand: arginine 13.2 mM) 117 nM; under setting [1], 278 nM; under setting [2], 579 nM.

As for “CUCUGAGUCCGAAAGGACUCAGAGGCGGAUACCAGCGAGGUCCAUCGCCCUUGGCAGCCGAACAUGAGGAUCACCCAUGUCGGUA [#1 Same State - Theophylline A Attempt #28 (HarryS)]”, the “apparent KD of MS2 coat protein” value by setting is: (input ligand: arginine 13.2 mM) 9.74 nM; under setting [1], 12.1 nM; under setting [3], 11.2 nM.

Take “GGGUCGCGUUCGGCCGCCACUUGGAAACAUGAGGAUCACCCAUGUCAUAUGGUGGGACAUGUUGUAAGGACCGGGAACCGUCCUA [theeternabot_exclusion_MS2_Trp_B_11]”: the “apparent KD of MS2 coat protein” value runs as follows: (input ligand: arginine 13.2 mM) 34.6 nM; under setting [1], 82.1 nM; under setting [2], 83.4 nM.

Turning to “ACGACGCAUAGUGAUACCAGCACAACAUGAGGAUCACCCAUGUCACAUAUGUUGUAAUAAUGCCCUUGGCAGCACUAUGCGUCAG [SSTheo B #2]”, the “apparent KD of MS2 coat protein” value by setting is: (input ligand: arginine 13.2 mM) 34.6 nM; under setting [1], 83.3 nM; under setting [3], 50.8 nM.

For the sequence “CGUACAUGAGGAUCACCCAUGUAGAGUGAUACCAGUCUACCUAGUGACCCUUGGCAGCACAUCGAUGGCAUCGGUGAUGCCGUUU [Atveti]”, the “apparent KD of MS2 coat protein” value is, setting by setting: (input ligand: arginine 13.2 mM) 70.1 nM; under setting [1], 116 nM; under setting [3], 117 nM.

As to “AUUGUCGUGUCGGCCGCCACUGUCAUGGUUUUCGUGGAAAACAUGAGGAUCACCCAUGUAAUUGACAGGACCGGGACAUGGCGGC [Ricegesoer]”, the “apparent KD of MS2 coat protein” value (input ligand: arginine 13.2 mM) is 9.35 nM, the “apparent KD of MS2 coat protein” value under setting [1] worked out at 11.1 nM and the “apparent KD of MS2 coat protein” value under setting [2] turned out to be 9.4 nM.

In the case of “GGUCUGAAAACCGAUCAAAGAUCGGAAGAUACCAGAGGGUGAUCCCUCCCUUGGCAGCUUCACAUGAGGAUCACCCAUGUAGACC [Omei inspired #BothOrNeither]”, the “apparent KD of MS2 coat protein” value (input ligand: arginine 13.2 mM) was 29.3 nM, the “apparent KD of MS2 coat protein” value under setting [1] is 188 nM and the “apparent KD of MS2 coat protein” value under setting [3] came to 82.5 nM.

With “AUCCAUAGCCGAAGGAGCGCAGUAGGAUGACAUGAGGAUCACCCAUGUGUGUGAUGUGGAUUGCAGGUAGGUCGCGGAGUGGGUU [Exclusion - Arginine B (Freestyle 7)]”, the “apparent KD of MS2 coat protein” value runs as follows: (input ligand: arginine 13.2 mM) 101 nM; (input ligand: none) 65.2 nM; under setting [1], 124 nM; under setting [2], 134 nM; under setting [3], 79.7 nM.

For “GUGUUAUGGUCGGCCGCCACUCUGACAUGAGGAUCACCCAUGUUGUACAUGAGGAUCACCCAUGUGAGGACCGGGACACGUGCGA [Exclusion Tryptophan B GF10]”, the “apparent KD of MS2 coat protein” value was determined as 203 nM (input ligand: arginine 13.2 mM), 363 nM under setting [1] and 476 nM under setting [2].

For the sequence “UGUAUGGACUGAAGGAGCGGGUUGAUAUCAUGAGGAUCACCCAUGGAAAAGGCGAAAGCCGCCCAGGUAGGUCGCAGUCCAUACU”, the “apparent KD of MS2 coat protein” value reads like this: (input ligand: arginine 13.2 mM) 25.1 nM; under setting [1], 38 nM; under setting [2], 37.5 nM; under setting [3], 26 nM.
